± gives the uncertainty stated by the source.
Test: self-splicing fitness, log relative to wild type (ln ratio); higher = more splicing; Tetrahymena group I intron in knt gene, E. coli kanamycin selection, DiMSum; sequences stand for … in CUCUCU…GGAGGGAAAAGUUAUCAGGCAUGCACCUGGUAGCUAGUCUUUAAACCAAUAGAUUGCAUCGGUUUAAAAGGCAAGACCGUCAAAUUGCGGGAAAGGGGUCAACAGCCGUUCAGUACCAAGUCUCAGGGGAAACUUUGAGAUGGCCUUGCAAAGGGUAUGGUAAUAAGCUGACGGACAUGGUCCUAACCACGCAGCCAAGUCCUAAGUCAACAGAUCUUCUGUUGAUAUGGAUGCAGUUCACAGACUAAAUGUCGGUCGGGGAAGAUGUAUUCUUCUCAUAAGAUAUAGUCGGACCUCUCCUUAAUGGGAGCUAGCGGAUGAAGUGAUGCAACACUGGAGCCGCUGGGAACUAAUUUGUAUGCGAAAGUAUAUUGAUUAGUUUUGGAGUACUCGUGGUCG
Procedure, shortened: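 A randomised library covering all eight P1ex-region intron nucleotides was built with the intron in the knt kanamycin-resistance gene on pET-22b(+) and held in E. coli BL21(DE3). Cells were grown overnight at 37°C or 30°C on LB agar, with or without 25 μg/mL kanamycin, plus 100 μg/mL carbenicillin, 50 μM IPTG and 0.2% rhamnose, and pooled colonies were amplicon-sequenced on an Illumina HiSeq 2500. DiMSum fitness is the error-weighted combination of wild-type-normalised replicate fold changes, kanamycin versus none.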

| Sequence | self-splicing fitness (ln) (30 °C) | self-splicing fitness (ln) (37 °C) |
| --- | --- | --- |
| AAAUAGCAAUAUUACGCCGA | -2.41 ± 0.19 | -0.837 ± 0.17 |
| AACGAGCAAUAUUACGUGUC | -2.08 ± 0.11 | -2.17 ± 0.23 |
| ACGUAGCAAUAUUACGAACG | -1 ± 0.082 | -0.927 ± 0.12 |
| CUGCAGCAAUAUUACGUUGC | -3.71 ± 0.26 | -2.18 ± 0.29 |
| UGAAAGCAAUAUUACGCUAA | -1 ± 0.12 | -0.805 ± 0.13 |
| UUUGAGCAAUAUUACGUGGU | -4.12 ± 0.33 | -2.74 ± 0.38 |
| CGACAGCAAUAUUACGGCUG | -3.32 ± 0.19 | -0.951 ± 0.16 |
| UCAGAGCAAUAUUACGAAGG | -2.15 ± 0.085 | -1.84 ± 0.12 |
| UCGGAGCAAUAUUACGGCGA | -1.1 ± 0.18 | -0.689 ± 0.23 |
| UAUCAGCAAUAUUACGGUAG | -1.26 ± 0.083 | 0.0233 ± 0.087 |
| GUGAAGCAAUAUUACGAUGU | -0.316 ± 0.064 | -0.0235 ± 0.094 |
| GCGAAGCAAUAUUACGGCAU | -1.25 ± 0.099 | -0.00655 ± 0.089 |
| AGGUAGCAAUAUUACGCAAA | -2.317 ± 0.023 | -1.37 ± 0.035 |
| GUCCAGCAAUAUUACGACCG | -2.21 ± 0.5 | – |
| ACCGAGCAAUAUUACGCAAU | -2.71 ± 0.16 | -2.36 ± 0.32 |
| CGGAAGCAAUAUUACGUGCG | -1.64 ± 0.095 | -1.05 ± 0.14 |
| GCAUAGCAAUAUUACGAGCC | -2.61 ± 0.2 | -2.49 ± 0.33 |
| AGGCAGCAAUAUUACGGGCC | -2.17 ± 0.29 | -1.52 ± 0.26 |
| UAAUAGCAAUAUUACGCAUC | -2.08 ± 0.49 | – |
| UACCAGCAAUAUUACGUGCC | -3.35 ± 0.24 | -0.584 ± 0.19 |
| UACCAGCAAUAUUACGCGAU | -2.6 ± 0.17 | -0.608 ± 0.15 |
| UAAAAGCAAUAUUACGAAGC | -3.23 ± 0.3 | -3.29 ± 0.46 |
| CUCGAGCAAUAUUACGAAAU | -3.36 ± 0.42 | -2.38 ± 0.27 |
| GGUUAGCAAUAUUACGUAUC | -0.749 ± 0.12 | 0.0936 ± 0.15 |
| UCGUAGCAAUAUUACGUAGA | -0.639 ± 0.14 | 0.461 ± 0.14 |

| Sequence | self-splicing fitness (ln) (30 °C) | self-splicing fitness (ln) (37 °C) |
| --- | --- | --- |
| UAUCAGCAAUAUUACGAUAG | -0.799 ± 0.11 | 0.204 ± 0.15 |
| CUACAGCAAUAUUACGAUAA | -3.02 ± 0.15 | -1.49 ± 0.12 |
| GAGCAGCAAUAUUACGAUAC | -1.61 ± 0.12 | -1.45 ± 0.15 |
| GCUCAGCAAUAUUACGGGCA | -1.76 ± 0.17 | -0.69 ± 0.17 |
| CUUCAGCAAUAUUACGAGCA | – | -2.16 ± 0.28 |
| UGAGAGCAAUAUUACGCCAC | -2.36 ± 0.31 | -1.1 ± 0.42 |
| GGAUAGCAAUAUUACGAGAG | -1.8 ± 0.23 | -3.09 ± 0.47 |
| ACCUAGCAAUAUUACGCUCU | -0.243 ± 0.096 | -0.447 ± 0.098 |
| AGGUAGCAAUAUUACGCCUU | -4.13 ± 0.038 | -2.87 ± 0.048 |
| GUGAAGCAAUAUUACGAGCC | – | -2.76 ± 0.48 |
| CUCGAGCAAUAUUACGCUAC | -0.697 ± 0.2 | – |
| AAAAAGCAAUAUUACGAGAC | -3.02 ± 0.19 | -2.47 ± 0.24 |
| GCCAAGCAAUAUUACGUCAU | -2.96 ± 0.22 | -2.59 ± 0.18 |
| UUCGAGCAAUAUUACGGGCU | – | -3.81 ± 0.42 |
| AGCAAGCAAUAUUACGCCAG | -2.09 ± 0.2 | -2.65 ± 0.44 |
| GGGUAGCAAUAUUACGUGUU | -1.37 ± 0.097 | -0.992 ± 0.11 |
| CGCUAGCAAUAUUACGCCCA | -0.642 ± 0.11 | -0.0477 ± 0.14 |
| AUGCAGCAAUAUUACGUAGA | -1.71 ± 0.079 | -1.09 ± 0.1 |
| ACAGAGCAAUAUUACGCGGU | -4.3 ± 0.41 | -2.43 ± 0.28 |
| AGUCAGCAAUAUUACGUUGG | -2.9 ± 0.17 | -1.83 ± 0.18 |
| GUUGAGCAAUAUUACGCAUC | -1.26 ± 0.25 | – |
| CAAAAGCAAUAUUACGUACC | -2.56 ± 0.15 | -1.33 ± 0.15 |
| AGAUAGCAAUAUUACGGACC | -0.504 ± 0.15 | -0.242 ± 0.12 |
| ACAGAGCAAUAUUACGUUGA | -2.69 ± 0.21 | -3.28 ± 0.27 |
| CACGAGCAAUAUUACGUGAU | -3.91 ± 0.14 | -2.05 ± 0.14 |
